# Source: patent US5972636A (priority 1997, dated 1999)
# Entries after “also recorded” stand apart in the source; their conditions may differ.
# Tests used:
# denervated soleus = format: cell-based, rat
# [1] = tested on: proteasome-multipain complex formation; format: biochemical, rabbit
# [2] = tested on: new protease (multipain) from skeletal muscle
# [3] = tested on: 1500 kDa complex (proteasome-multipain)
# [4] = tested on: fraction II (ATP-dependent degradative system); test: Hydrolysis of Ub-125I-lysozyme by muscle fraction II; format: biochemical, rabbit
# Method: All enzymatic assays were linear, except where noted (see below). When present, ATP was 2 mM in assays. Unless otherwise stated, in all assays, 50 μl aliquots of the fraction from the column or of the purified protease (10 μg)were incubated in 200 μl containing 50 mM TRIS-HCl (pH 7.8), 10 mM MgCl2, 1 mM DTT, and 5 μg of the radioactive proteins, 0.5 μg of Ub-conjugates, or 0.5 mM of the fluorogenic peptide. For assays of proteolysis, the reaction mixtures contained approximately 15,000 cpm of Ub-lysozyme or labeled proteins. Degradation of ^125 I-lysozyme, Ub-^125 I-lysozyme, ^14 C-casein, ^14 C-hemoglobin and OH/O2^- treated ^14 C-hemoglobin were assayed by measuring the production of acid-soluble radioactivity after 60 min of incubation at 37° C. Ub-^125 I-lysozyme was prepared using liver fraction II, according to the method of Hough and Rechsteiner. Hough et al., J. Biol. Chem. 261:2400-2408 (1986), Hough, R. and Rechsteiner, M. J. Biol. Chem. 261:2391-2399 (1986). ^125 I-lysozyme and Ub were prepared as described previously. Waxman et al., J. Biol. Chem. 262:2451-2457 (1987), Fagan et al., BioChem. J. 243:335-343 (1987). The concentration of conjugates was calculated based on the specific radioactivity of the ^125 I-lysxozyme used for conjugate synthesis. One unit of sLLVT-MCA represents 10 nmol of MCA produced in 30 min. […]
# [5] = molecular target: T1, proteasome from skeletal muscle (Oryctolagus cuniculus, UniProt G1T4Q9); format: biochemical, rabbit
# T1 construct: from tissue; host or cells: rabbit skeletal (psoas) muscle, proteasome fraction after Mono Q and Superose 6
# Ub-lysozyme conjugates = test: Degradation of Ub-lysozyme conjugates in 1st and 2nd hour with additions at 60 min; format: biochemical, rabbit; details: substance added at 60 min, cystatin 4 μM
molecule,measurement,setting,value
CN [Methylamine],Myofibrillar Proteins 3-Methylhistidine Release,"denervated soleus; None = 5.11 ± 0.21, as E65",5.05 ± 0.19 pmol/mg/2h
same,Total Proteins Tyrosine Release,"denervated soleus; soleus three days after section of the sciatic nerve, None = 328 ± 10, methylamine 10 μM, E64c 50 μM, dinitrophenol 0.1 mM, 2-deoxyglucose 5 mM",330 ± 11 pmol/mg/2h
"Nc1ncnc2c1ncn2[C@@H]1O[C@H](COP(=O)(O)OP(=O)(O)NP(=O)(O)O)[C@@H](O)[C@H]1O [AMP-PNP, adenyl 5'-oyl-imidodiphosphate]","effect on formation of the proteasome-multipain complex, in words",[1],completely prevented complex formation
same,"effect of nucleotides on Ub-125I-lysozyme hydrolysis by the purified enzyme, in words",[2]; Table III,No stimulation
same,"Relative activity (%), degradation of Ub-125I-lysozyme by the new activity","[2]; Table III, None = 100, 2 mM of the nucleotides or 10 mM PPi, 37° C. 1 hour",90%
same,"effect of nucleotides on Ub-125I-lysozyme hydrolysis by the complex, in words",[3]; Table VIII,No stimulation
same,"Realtive Activity (%) Complex, Ub-lysozyme degradation","[3]; Table VIII, None = 100, 2 mM of the nucleotide or 10 mM PPi",109%
same,"effect on degradation of Ub-conjugated proteins by fraction II, in words",[4],did not stimulate the degradation of Ub-conjugated proteins
Nc1ncnc2c1ncn2[C@@H]1O[C@H](COP(=O)(O)CP(=O)(O)OP(=O)(O)O)[C@@H](O)[C@H]1O [AMP-CPP],"effect on degradation of Ub-conjugated proteins by fraction II, in words",[4],did not stimulate the degradation of Ub-conjugated proteins
"Cystatin A: egg-white cystatin, a potent inhibitor of many papain-like thiol proteinases (protein, UniProt P01040 1-98, looked up) Cystatin-A: MIPGGLSEAKPATPEIQEIVDKVKPQLEEKTNETYGKLEAVQYKTQVVAGTNYYIKVRAGDNKYMHLKVFKSLPGQNEDLVLTGYQVDKNKDDELTGF",Realtive Activity (%) Proteasome (sLLVT-MCA),[5],93%
same,Relative activity (%) […]-MCA,[5],93%
same,"effect on formation of the proteasome-multipain complex, in words",[1],did not occur; also recorded: blocked
same,Realtive Activity (%) Multipain,[2],30%
same,Relative activity (%) NEW PROTEASE OH/O2 - treated hemoglobin,[2],27%
same,Relative activity (%) NEW PROTEASE Ub-lysozyme,[2],30%
same,Relative activity (%) NEW PROTEASE lysozyme,[2],24%
same,Ki,"[2]; read-out: Ki, inhibition of proteolysis by multipain",< 1000 nM
same,Realtive Activity (%) Complex (Ub-125I-Lysozyme),[3],35%
same,inhibition of conjugate breakdown by the complex,[3],65%
same,Degradation in 2nd hour,"Ub-lysozyme conjugates; Complex added initially, None = 65",18 ng
same,Degradation in 2nd hour,"Ub-lysozyme conjugates; Multipain added initially, None = 74",4 ng
